Test results as given in patent US12630600B2 (MEDIMMUNE LIMITED, priority 2022, dated 2026).
Starred links: 1 amine or outer side, 2 acyl side, 3 side chain; linkers in the order of their positions; H or OH if unused. Non-standard residues stand in square brackets, D forms with d. Groups on a side chain read outwards from the residue. No end group written: not given here. *: point of attachment. C20 diacid = O=C(O)CCCCCCCCCCCCCCCCCCC(=O)*; C18 diacid = O=C(O)CCCCCCCCCCCCCCCCC(=O)*; γGlu = O=C(O)[C@H](CCC(=O)[*:2])N[*:1]; αMeF = C[C@](N)(Cc1ccccc1)C(=O)O; AEEA = NCCOCCOCC(=O)O; Aib = CC(C)(N)C(=O)O

What was measured:
human GLP-1 receptor = human GLP-1 receptor (human, UniProt P43220); test: cell-based or functional assay
human glucagon receptor = human glucagon receptor (human, UniProt P47871); test: cell-based or functional assay

Row | cAMP production EC50 (human GLP-1 receptor) [nM] | cAMP production EC50 (human glucagon receptor) [nM] | Binder
1 | 0.0232 | 0.38 | H[Aib]QGTFTSDVSK[αMeF]LDTK([AEEA-AEEA-γGlu-C18 diacid])RAQDFVRWLLR[Aib]K-NH2 (N-terminus assumed; SMILES CC(C)C[C@H](NC(=O)[C@H](Cc1c[nH]c2ccccc12)NC(=O)[C@H](CCCNC(=N)N)NC(=O)[C@@H](NC(=O)[C@H](Cc1ccccc1)NC(=O)[C@H](CC(=O)O)NC(=O)[C@H](CCC(N)=O)NC(=O)[C@H](C)NC(=O)[C@H](CCCNC(=N)N)NC(=O)[C@H](CCCCNC(=O)COCCOCCNC(=O)COCCOCCNC(=O)CC[C@H](NC(=O)CCCCCCCCCCCCCCCCC(=O)O)C(=O)O)NC(=O)[C@@H](NC(=O)[C@H](CC(=O)O)NC(=O)[C@H](CC(C)C)NC(=O)[C@](C)(Cc1ccccc1)NC(=O)[C@H](CCCCN)NC(=O)[C@H](CO)NC(=O)[C@@H](NC(=O)[C@H](CC(=O)O)NC(=O)[C@H](CO)NC(=O)[C@@H](NC(=O)[C@H](Cc1ccccc1)NC(=O)[C@@H](NC(=O)CNC(=O)[C@H](CCC(N)=O)NC(=O)C(C)(C)NC(=O)[C@@H](N)Cc1c[nH]cn1)[C@@H](C)O)[C@@H](C)O)C(C)C)[C@@H](C)O)C(C)C)C(=O)N[C@@H](CC(C)C)C(=O)N[C@@H](CCCNC(=N)N)C(=O)NC(C)(C)C(=O)N[C@@H](CCCCN)C(N)=O) [Peptide 495]
2 | 0.0374 | 0.118 | H[Aib]QGTFTSDVSK[αMeF]LDTK([AEEA-AEEA-γGlu-C18 diacid])RAQDFVRWLLR[Aib]A-OH (N-terminus assumed; SMILES CC(C)C[C@H](NC(=O)[C@H](Cc1c[nH]c2ccccc12)NC(=O)[C@H](CCCNC(=N)N)NC(=O)[C@@H](NC(=O)[C@H](Cc1ccccc1)NC(=O)[C@H](CC(=O)O)NC(=O)[C@H](CCC(N)=O)NC(=O)[C@H](C)NC(=O)[C@H](CCCNC(=N)N)NC(=O)[C@H](CCCCNC(=O)COCCOCCNC(=O)COCCOCCNC(=O)CC[C@H](NC(=O)CCCCCCCCCCCCCCCCC(=O)O)C(=O)O)NC(=O)[C@@H](NC(=O)[C@H](CC(=O)O)NC(=O)[C@H](CC(C)C)NC(=O)[C@](C)(Cc1ccccc1)NC(=O)[C@H](CCCCN)NC(=O)[C@H](CO)NC(=O)[C@@H](NC(=O)[C@H](CC(=O)O)NC(=O)[C@H](CO)NC(=O)[C@@H](NC(=O)[C@H](Cc1ccccc1)NC(=O)[C@@H](NC(=O)CNC(=O)[C@H](CCC(N)=O)NC(=O)C(C)(C)NC(=O)[C@@H](N)Cc1c[nH]cn1)[C@@H](C)O)[C@@H](C)O)C(C)C)[C@@H](C)O)C(C)C)C(=O)N[C@@H](CC(C)C)C(=O)N[C@@H](CCCNC(=N)N)C(=O)NC(C)(C)C(=O)N[C@@H](C)C(=O)O) [Peptide 497]
3 | 0.0406 | 0.0788 | H[Aib]QGTFTSDVSK[αMeF]LDTK([AEEA-AEEA-γGlu-C18 diacid])RAQDFVQWLLR[Aib]A-OH (N-terminus assumed; SMILES CC(C)C[C@H](NC(=O)[C@H](Cc1c[nH]c2ccccc12)NC(=O)[C@H](CCC(N)=O)NC(=O)[C@@H](NC(=O)[C@H](Cc1ccccc1)NC(=O)[C@H](CC(=O)O)NC(=O)[C@H](CCC(N)=O)NC(=O)[C@H](C)NC(=O)[C@H](CCCNC(=N)N)NC(=O)[C@H](CCCCNC(=O)COCCOCCNC(=O)COCCOCCNC(=O)CC[C@H](NC(=O)CCCCCCCCCCCCCCCCC(=O)O)C(=O)O)NC(=O)[C@@H](NC(=O)[C@H](CC(=O)O)NC(=O)[C@H](CC(C)C)NC(=O)[C@](C)(Cc1ccccc1)NC(=O)[C@H](CCCCN)NC(=O)[C@H](CO)NC(=O)[C@@H](NC(=O)[C@H](CC(=O)O)NC(=O)[C@H](CO)NC(=O)[C@@H](NC(=O)[C@H](Cc1ccccc1)NC(=O)[C@@H](NC(=O)CNC(=O)[C@H](CCC(N)=O)NC(=O)C(C)(C)NC(=O)[C@@H](N)Cc1c[nH]cn1)[C@@H](C)O)[C@@H](C)O)C(C)C)[C@@H](C)O)C(C)C)C(=O)N[C@@H](CC(C)C)C(=O)N[C@@H](CCCNC(=N)N)C(=O)NC(C)(C)C(=O)N[C@@H](C)C(=O)O) [Peptide 499]
4 | 0.156 | 0.17 | H[Aib]QGTFTSDVSK[αMeF]LDTK([AEEA-AEEA-γGlu-C20 diacid])RAQDFVRWLLR[Aib]A-OH (N-terminus assumed; SMILES CC(C)C[C@H](NC(=O)[C@H](Cc1c[nH]c2ccccc12)NC(=O)[C@H](CCCNC(=N)N)NC(=O)[C@@H](NC(=O)[C@H](Cc1ccccc1)NC(=O)[C@H](CC(=O)O)NC(=O)[C@H](CCC(N)=O)NC(=O)[C@H](C)NC(=O)[C@H](CCCNC(=N)N)NC(=O)[C@H](CCCCNC(=O)COCCOCCNC(=O)COCCOCCNC(=O)CC[C@H](NC(=O)CCCCCCCCCCCCCCCCCCC(=O)O)C(=O)O)NC(=O)[C@@H](NC(=O)[C@H](CC(=O)O)NC(=O)[C@H](CC(C)C)NC(=O)[C@](C)(Cc1ccccc1)NC(=O)[C@H](CCCCN)NC(=O)[C@H](CO)NC(=O)[C@@H](NC(=O)[C@H](CC(=O)O)NC(=O)[C@H](CO)NC(=O)[C@@H](NC(=O)[C@H](Cc1ccccc1)NC(=O)[C@@H](NC(=O)CNC(=O)[C@H](CCC(N)=O)NC(=O)C(C)(C)NC(=O)[C@@H](N)Cc1c[nH]cn1)[C@@H](C)O)[C@@H](C)O)C(C)C)[C@@H](C)O)C(C)C)C(=O)N[C@@H](CC(C)C)C(=O)N[C@@H](CCCNC(=N)N)C(=O)NC(C)(C)C(=O)N[C@@H](C)C(=O)O) [Peptide 498]
5 | 0.0649 | 0.482 | H[Aib]QGTFTSDVSK[αMeF]LDTK([AEEA-AEEA-γGlu-C20 diacid])RAQDFVRWLLR[Aib]K-NH2 (N-terminus assumed; SMILES CC(C)C[C@H](NC(=O)[C@H](Cc1c[nH]c2ccccc12)NC(=O)[C@H](CCCNC(=N)N)NC(=O)[C@@H](NC(=O)[C@H](Cc1ccccc1)NC(=O)[C@H](CC(=O)O)NC(=O)[C@H](CCC(N)=O)NC(=O)[C@H](C)NC(=O)[C@H](CCCNC(=N)N)NC(=O)[C@H](CCCCNC(=O)COCCOCCNC(=O)COCCOCCNC(=O)CC[C@H](NC(=O)CCCCCCCCCCCCCCCCCCC(=O)O)C(=O)O)NC(=O)[C@@H](NC(=O)[C@H](CC(=O)O)NC(=O)[C@H](CC(C)C)NC(=O)[C@](C)(Cc1ccccc1)NC(=O)[C@H](CCCCN)NC(=O)[C@H](CO)NC(=O)[C@@H](NC(=O)[C@H](CC(=O)O)NC(=O)[C@H](CO)NC(=O)[C@@H](NC(=O)[C@H](Cc1ccccc1)NC(=O)[C@@H](NC(=O)CNC(=O)[C@H](CCC(N)=O)NC(=O)C(C)(C)NC(=O)[C@@H](N)Cc1c[nH]cn1)[C@@H](C)O)[C@@H](C)O)C(C)C)[C@@H](C)O)C(C)C)C(=O)N[C@@H](CC(C)C)C(=O)N[C@@H](CCCNC(=N)N)C(=O)NC(C)(C)C(=O)N[C@@H](CCCCN)C(N)=O) [Peptide 496]
6 | 0.0987 | 0.212 | H[Aib]QGTFTSDVSK[αMeF]LDTK([AEEA-AEEA-γGlu-C20 diacid])RAQDFVRWLLR[Aib]K-OH [Peptide 494]
7 | 0.212 | 0.374 | H[Aib]QGTFTSDVSK[αMeF]LDTK([AEEA-AEEA-γGlu-C20 diacid])RARDFVRWLL[Aib]TE-OH (N-terminus assumed; SMILES CC(C)C[C@H](NC(=O)[C@H](Cc1c[nH]c2ccccc12)NC(=O)[C@H](CCCNC(=N)N)NC(=O)[C@@H](NC(=O)[C@H](Cc1ccccc1)NC(=O)[C@H](CC(=O)O)NC(=O)[C@H](CCCNC(=N)N)NC(=O)[C@H](C)NC(=O)[C@H](CCCNC(=N)N)NC(=O)[C@H](CCCCNC(=O)COCCOCCNC(=O)COCCOCCNC(=O)CC[C@H](NC(=O)CCCCCCCCCCCCCCCCCCC(=O)O)C(=O)O)NC(=O)[C@@H](NC(=O)[C@H](CC(=O)O)NC(=O)[C@H](CC(C)C)NC(=O)[C@](C)(Cc1ccccc1)NC(=O)[C@H](CCCCN)NC(=O)[C@H](CO)NC(=O)[C@@H](NC(=O)[C@H](CC(=O)O)NC(=O)[C@H](CO)NC(=O)[C@@H](NC(=O)[C@H](Cc1ccccc1)NC(=O)[C@@H](NC(=O)CNC(=O)[C@H](CCC(N)=O)NC(=O)C(C)(C)NC(=O)[C@@H](N)Cc1c[nH]cn1)[C@@H](C)O)[C@@H](C)O)C(C)C)[C@@H](C)O)C(C)C)C(=O)N[C@@H](CC(C)C)C(=O)NC(C)(C)C(=O)N[C@H](C(=O)N[C@@H](CCC(=O)O)C(=O)O)[C@@H](C)O) [Peptide 492]
8 | 0.0234 | 0.166 | H[Aib]QGTFTSDVSK[αMeF]LDTK([AEEA-AEEA-γGlu-C18 diacid])RAQDFVRWLLR[Aib]K-OH (N-terminus assumed; SMILES CC(C)C[C@H](NC(=O)[C@H](Cc1c[nH]c2ccccc12)NC(=O)[C@H](CCCNC(=N)N)NC(=O)[C@@H](NC(=O)[C@H](Cc1ccccc1)NC(=O)[C@H](CC(=O)O)NC(=O)[C@H](CCC(N)=O)NC(=O)[C@H](C)NC(=O)[C@H](CCCNC(=N)N)NC(=O)[C@H](CCCCNC(=O)COCCOCCNC(=O)COCCOCCNC(=O)CC[C@H](NC(=O)CCCCCCCCCCCCCCCCC(=O)O)C(=O)O)NC(=O)[C@@H](NC(=O)[C@H](CC(=O)O)NC(=O)[C@H](CC(C)C)NC(=O)[C@](C)(Cc1ccccc1)NC(=O)[C@H](CCCCN)NC(=O)[C@H](CO)NC(=O)[C@@H](NC(=O)[C@H](CC(=O)O)NC(=O)[C@H](CO)NC(=O)[C@@H](NC(=O)[C@H](Cc1ccccc1)NC(=O)[C@@H](NC(=O)CNC(=O)[C@H](CCC(N)=O)NC(=O)C(C)(C)NC(=O)[C@@H](N)Cc1c[nH]cn1)[C@@H](C)O)[C@@H](C)O)C(C)C)[C@@H](C)O)C(C)C)C(=O)N[C@@H](CC(C)C)C(=O)N[C@@H](CCCNC(=N)N)C(=O)NC(C)(C)C(=O)N[C@@H](CCCCN)C(=O)O) [Peptide 493]
